Laboratory results taken from article PMC2917020, “Novel design principles enable specific targeting of imaging and therapeutic agents to necrotic domains in breast tumors” (Breast Cancer Research : BCR, 2010).
Structures can show the parent of a compound that is named as a salt. Each block holds one compound with its values, some of them ahead of it.

Assays:
[1] = Biodistribution studies (tissue extraction, fluorescence); assay type: in vivo, CD-1 nude female mice
Procedure: Anaesthetized mice were i.v. injected with 15 mg/kg STL-6014 (n = 27) or 9 mg/kg STL-7012 (n = 15). At each indicated time point, three animals were sacrificed and blood, kidney, liver and tumor tissues were collected into pre-weighed vials and frozen at -20°C. Tissue samples were homogenized in methanol (100 mg tissue/ml) and extracted the next morning by centrifugation (13,000 × g five minutes) at room temperature. Supernatants were diluted in methanol by a factor of two and drug concentration was determined by fluorescence measurements (Varian - Cary Eclipse spectrofluorimeter, Palo Alto, California, USA) at 750 nm (peak values). Drug concentrations were interpolated from a fluorescence calibration curve, based on predetermined drug concentrations using absorption spectroscopy.

[2] = system: MDA-MB-231-RFP tumors; assay: Whole-body fluorescence imaging of drug accumulation and clearance in tumors; details: large necrotic tumors, 9 mg/kg i.v., from one hour post injection
Procedure: (§1) Mammary fat pads (left, bottom nipple) of female mice were inoculated with harvested MDA-MB-231-RFP human breast cancer cells (4 × 10^6 in 100 μl saline). Tumors were classified as 'small' (≤100 mm^3) at one to two weeks from time of cell injection, or 'large' after three to four weeks (necrotic tumors, 250 to 500 mm^3). To avoid tumor burden, mice were sacrificed (cervical dislocation) when tumor size reached 10% of body weight or at 90 days post-implantation. External caliper measurements, length (L), width (W) and depth (D) were used to calculate in vivo tumor volume according to the formula: V = L/2 · W/2 · D/2 · π · 4/3 [46].
(§2) The in Vivo Optical Imaging System (IVIS®100/XFO-12, Xenogen Corp., Alameda, CA, USA) was used to acquire fluorescent images of the RFP-expressing tumors, as well as Bchl-D compounds associated with tissues and organs after their intravenous (i.v.) infusion to the tested animals. The field of view was 15 cm. RFP fluorescence, in units of photons/sec, was detected using 525/50 nm and 612/75 nm filter sets for excitation and emission, respectively, with one second integration time. NIR fluorescence of the different Bchl-Ds, in units of photons/sec, was detected using 680/30 nm and 847/75 nm filter sets for excitation and emission, respectively, at an integration time of five seconds. Background fluorescence for all quantitative analyses was calculated by recording the average fluorescence (photons/sec)/cm^2 from three animals in three different areas around and within the tumor of untreated animals provided with a similar diet for three days before measurements.
(§3) Drug accumulation was determined following i.v. administration of molar equivalents of the Bchl-D moiety to the tail vein of mice fed with a chlorophyll-free, purified diet (Harlan Teklad, Harlan Laboratories, Indianapolis, IN, USA) for three days before administration (in order to reduce skin and food autofluorescence). Before imaging, mice were anesthetized by intraperitoneum injection of a 30 μl mixture of 85:15 ketamine:xylazine.
(§4) Xenogen Living Image Software (Xenogen Corp., Alameda, CA, USA) was used for sequential fluorescent image acquisition [see Additional file 1] and superimposition of photographic images of mice and color-coded fluorescent images.

[3] = biological target: HSA (Homo sapiens, UniProt P02768); assay: Association constants of Bchl-Ds to HSA (spectroscopic titration); assay type: binding; details: for HSA association constant Ka(HSA): 1:1 non-covalent complex with HSA
HSA, sequence (P02768 25-609): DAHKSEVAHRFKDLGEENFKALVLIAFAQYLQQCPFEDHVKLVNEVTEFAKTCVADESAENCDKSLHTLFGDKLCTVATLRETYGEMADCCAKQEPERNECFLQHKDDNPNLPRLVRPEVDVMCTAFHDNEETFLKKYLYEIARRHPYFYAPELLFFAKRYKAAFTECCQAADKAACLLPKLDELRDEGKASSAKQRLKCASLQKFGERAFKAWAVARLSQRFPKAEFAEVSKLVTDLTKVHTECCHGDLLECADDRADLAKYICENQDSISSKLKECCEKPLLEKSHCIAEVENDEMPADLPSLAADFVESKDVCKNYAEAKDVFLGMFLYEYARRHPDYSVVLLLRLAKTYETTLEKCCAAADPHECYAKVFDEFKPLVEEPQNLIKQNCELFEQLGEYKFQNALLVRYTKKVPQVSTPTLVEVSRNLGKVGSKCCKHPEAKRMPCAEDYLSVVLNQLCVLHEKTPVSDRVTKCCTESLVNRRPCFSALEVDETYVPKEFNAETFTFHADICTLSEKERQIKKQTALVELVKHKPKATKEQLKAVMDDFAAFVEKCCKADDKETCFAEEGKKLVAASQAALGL
From the text: Association constants of Bchl-Ds to HSA were deduced from spectroscopic measurements of the ratio between Bchl-Ds and HSA for different concentrations of HSA using both factor analysis, as previously described and by monitoring changes in the near infrared (NIR) absorption of the Bchl-Ds during titration with HSA. Briefly, all four Bchl-Ds present broad NIR absorption with reduced intensity in SA-free aqueous solutions. Upon addition of SA, they form 1:1 complexes with the added protein ((Bchl-D)/SA) with strong and narrow NIR absorption bands. The narrow-band absorption is proportional to the ((Bchl-D)/SA) concentration enabling calculation of the association constant Ka through the following equation: [drawing 1]
Where [SA]0 is the analytical concentration of the added SA and [(Bchl-D/SA)] is the concentration of the Bchl-D complex with SA calculated from the spectral changes.

[4] = system: primary xenografts; details: circulates as non-covalent complex with SA; cited from earlier work
[5] = system: αVβ3 integrin receptors; design: method as in PMID 16309948; details: cited from earlier work
[6] = design: method as in PMID 11216533; details: cited from earlier work
[7] = in vivo; details: female, CD-1 nude, mouse
Procedure: as §1, §2, §3, §4

[8] = system: MDA-MB-231-RFP tumors; assay: In vivo competition between STL-6014 and free c(RGDfK); design: species or system CD-1 nude female mice
Procedure: STL-6014 (140 nmol, 7.5 mg/kg) was i.v. injected to the tail vein of mice one hour after being pre-injected with an excess (8.5 μmol) of c(RGDfK) free peptide. Whole-body fluorescence images were recorded up to 24 hours post-STL-6014 injection (IVIS®, Xenogen Corp., Alameda, CA, USA) with the respective filter settings, described above.

[9] = system: large MDA-MB-231-RFP tumors; assay: Fluorescence imaging of dissected tumors (spatial distribution); assay type: in vivo, CD-1 nude female mice; details: 15 mg/kg i.v.
[10] = system: MDA-MB-231-RFP tumors; details: mouse, in vivo
Procedure: as §1, §2, §3, §4

[11] = 48 to 72 hours post-administration

Compound: CC[C@H]1c2cc3[nH]c(c(CC(=O)OC)c4nc(cc5[nH]c(cc(n2)[C@@H]1C)c(C(C)=O)c5C)[C@@H](C)[C@@H]4CCC(=O)O)c(C(=O)NCCS(=O)(=O)[O-])c3C.[K+] [STL-7012, 3^1-oxo-15-methoxycarbonylmethyl-Rhodobacteriochlorin 13^1-(2-sulfoethyl)amide dipotassium salt]
- accumulation in tumor, fluorescence of tissue extracts ([1]; 9 mg/kg i.v., any time longer than one hour post administration): no STL-7012 accumulation in the tumor
- tumor fluorescence in whole-body imaging [2]: No specific tumor fluorescence
- HSA association constant Ka(HSA) [3]: 0.44 ± 0.09 µM⁻¹

Compound: CC[C@H]1c2cc3[n-]c(c(CC(=O)OC)c4nc(cc5[n-]c(cc(n2)[C@@H]1C)c(C(C)=O)c5C)[C@@H](C)[C@@H]4CCC(=O)[O-])c(C(=O)NCCS(=O)(=O)[O-])c3C.[H+].[H+].[Pd+2] [WST11]
- HSA association constant Ka(HSA) [3]: 0.54 ± 0.07 µM⁻¹
- accumulation in the tumor tissue [4]: no accumulation in the tumor tissue

Compound: Cyclo-Arg-Gly-Asp-D-Phe-Lys [c(RGDfK)]
- Ka, association of c(RGDfK) moiety with αVβ3 integrin receptors [5]: about 10^9 M^-1
- half life in a similar animal model [6]: minutes

- Kd ([3]; as restated in discussion, read-out: Ka, association with SA (converted)): 8.33 µM
Compound: CC[C@H]1c2cc3[nH]c(c(CC(=O)OC)c4nc(cc5[nH]c(cc(n2)[C@@H]1C)c(C(C)=O)c5C)[C@@H](C)[C@@H]4CCC(=O)NCCCC[C@@H]1NC(=O)[C@@H](Cc2ccccc2)NC(=O)[C@H](CC(=O)O)NC(=O)CNC(=O)[C@H](CCCNC(=N)N)NC1=O)c(C(=O)NCCS(=O)(=O)O)c3C [STL-6014, 3^1-oxo-15-methoxycarbonylmethyl-Rhodobacteriochlorin 13^1-(2-sulfoethyl)amide-17^3-c(RGDfK)amide potassium salt]
- t1/2 of hepatic clearance ([1]; 15 mg/kg i.v.): about four
- time to clear to nearly background levels in normal tissues ([1]; 15 mg/kg i.v.): less than 72 hours
- tumor level relative to blood [1, 11]: about two orders of magnitude
- tumor level relative to kidney, liver, intestines, lung and skin [1, 11]: about two
- tumor level relative to spleen, heart, brain, fat and muscle ([1]; 48 to 72 hours post-administration, data not shown): about 10 fold
- time of peak levels in normal tissues post-injection ([1]; blood, liver, kidney, 15 mg/kg i.v.): less than five
- time of peak concentration in tumors post-injection ([1]; large tumors, 15 mg/kg i.v.): eight
- peak concentration in tumors ([1]; large tumors, 15 mg/kg i.v., eight hours post-injection): 11 μg drug/gr tumor tissue
- peak tumor level as share of the initial drug dose ([1]; large tumors, eight hours post-injection): about 3.0%
- Tmax [7]: 48 to 72 h
- half-life ([7]; iv, 15 mg/kg, t1/2 of tumor fluorescence, mono-exponential decay): 14 ± 1.5 h
- STL-6014 uptake and accumulation after pre-administration of free c(RGDfK) ([8]; large tumors, data not shown): not affected
- STL-6014 tumor fluorescence after pre-injection of free c(RGDfK) ([8]; small tumors, 7.5 mg/kg (140 nmol) i.v. one hour after 61-fold molar excess c(RGDfK)): almost no STL-6014 fluorescence was detected in the tumor
- location of fluorescence signal in dissected tumor ([9]; beyond 16 hours post-injection): only observed in the necrotic domain
- location of fluorescence signal in dissected tumor ([9]; four hours post injection): within the viable tumor region alone
- time to full clearance from tumor [10]: less than two
- tumor half lifetime (T1/2) [10]: in the range of days
- clearance from small tumors relative to large tumors (faster) ([10]; iv, 15 mg/kg): more than 10 fold
- persistence of tumor fluorescence ([10]; iv, 15 mg/kg): still detectable at nine days
- t^1_1/2 of tumor fluorescence, bi-exponential decay ([10]; iv, 15 mg/kg): 12.0 ± 3.5 h
- t^2_1/2 of tumor fluorescence, bi-exponential decay ([10]; iv, 15 mg/kg): 210.0 ± 86.0 h
- time for tumor fluorescence to return to background values ([10]; iv, 15 mg/kg): ≤ 48 h
- time of peak tumor fluorescence after administration ([10]; iv, 15 mg/kg): six to eight
